Results published in the supplement of paper PMC10899765.

How the values were obtained:
Settings in all cases: 20 nM; 72 h
MCF10A [1] = experiment: 5+ nucleoli phenotype percent effect (relative to siNT 0% and siKIF11 100%); higher = more cells with five or more nucleoli
Experimental: (§1)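 After 72 h, cells were fixed and stained with Hoechst and anti-fibrillarin, and nucleoli per nucleus were counted with CellProfiler. Values are plate-adjusted percent effect for the one-nucleolus and 5+ nucleoli phenotypes, normalised to siNT (0%) and to the positive controls siNOL11 or siKIF11 (100%), as the mean of biological triplicates. Percent viability is the nuclei count relative to siNT.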

MCF10A [2] = experiment: percent viability (nuclei count relative to siNT); higher = more viable cells
Experimental: as §1

MCF10A [3] = experiment: one-nucleolus phenotype percent effect (relative to siNT 0% and siNOL11 100%); higher = more cells with one nucleolus (ribosome biogenesis inhibition)
Experimental: as §1

Sequence | 5+ nucleoli phenotype percent effect (MCF10A [1]) [%] | percent viability (MCF10A [2]) [%] | one-nucleolus phenotype percent effect (MCF10A [3]) [%]
AAAGACAUAGGAUAGAGUCACCUC [hsa-miR-641] | 1.49 | 213 | -15.4
CACAGGACUGACUCCUCACCCCAGUG [hsa-miR-4700-3p] | 43.2 | 83.5 | -16
CAGUGGCCAGAGCCCUGCAGUG [hsa-miR-3677-5p] | -20.3 | 28.6 | 16.6
UUGCCAGGGCAGGAGGUGGAA [hsa-miR-5006-5p] | -13.7 | 69.9 | 0.389
AAUGUAGAGAUUGAUCAAAAU [hsa-miR-3668] | 0.392 | 86.3 | 2.57
UAUAGGGAUUGGAGCCGUGGCG [hsa-miR-135a-3p] | 4.73 | 63.5 | 13.5
UGUGAUAUCGUGCUUCCUGGGA [hsa-miR-3689f] | 17.5 | 109 | -21.8
AAAAGUAAUUGCGGUCUUUGGU [hsa-miR-548j] | 17 | 85.9 | -14.6
CCAACCUAGGUGGUCAGAGUUG [hsa-miR-4714-3p] | 42 | 98.3 | -11.1
CCAAACCAGUCGUGCCUGUGG [hsa-miR-6715a-3p] | -42 | 40.8 | 24.3
AAAACGGUGAGAUUUUGUUUU [hsa-miR-553] | 65.7 | 103 | -24.2
CAUACAAUCUGACAUGUAUUU [hsa-miR-4666a-3p] | 15.8 | 66.1 | -4.04
GGGAAAAGGAAGGGGGAGGA [hsa-miR-6124] | 53.1 | 180 | -29.7
AGCAGGUGCGGGGCGGCG [hsa-miR-3665] | -20.8 | 33 | 40.6
AACCACUUUCUUUGCUCAUCCA [hsa-miR-1255b-2-3p] | -17.2 | 32.1 | 7.09
UGAGUGAUUGAUAGCUAUGUUC [hsa-miR-4765] | 24.9 | 52.9 | -19.8
AAACAUUCGCGGUGCACUUCUU [hsa-miR-543] | 0.749 | 37.4 | -1.05
AGGUGGGUAUGGAGGAGCCCU [hsa-miR-6769a-5p] | -16.7 | 14.3 | 39.6
CUGGGAGGUGUGAUAUCGUGGU [hsa-miR-3689a-3p] | 27.1 | 12.5 | 27.5
CGGGGCAGCUCAGUACAGGAU [hsa-miR-486-3p] | -5.42 | 10.1 | 47.2
CCAGCCACGGACUGAGAGUGCAU [hsa-miR-4691-3p] | 26.3 | 51.4 | -11.4
CUGGUACAGGCCUGGGGGACAG [hsa-miR-150-3p] | 1.02 | 66.2 | 11
UAGGGGGUGGCAGGCUGGCC [hsa-miR-6732-5p] | -15.7 | 33.3 | 17.1
UGUCUUGCAGGCCGUCAUGCA [hsa-miR-431-5p] | -40.8 | 28.5 | 53.9
AGGGGACUGGUUAAUAGAACUA [hsa-miR-4652-5p] | -5.22 | 14.5 | 47.2
